# Measurements: US20230203482A1, “Methods of Rescuing Stop Codons via Genetic Reassignment with ACE-tRNA” (THE WISTAR INSTITUTE OF ANATOMY AND BIOLOGY, priority 2017, published 2023)
# Residue numbers refer to the chain shown, from its start.
# B1: TrpTAGchr12.trna6: ACE-tRNA Trp, TAG suppressor, SEQ ID NO: 36 (nucleic acid)
# chain: CGTCGACCTCGTGGCGCAACGGTAGCGCGTCTGACTCTAGATCAGAAGGCTGCGTGTTCGAATCACGTCGGGGTCA
# modifications: expressed or natural sequence
# B2: TrpTAGchr17.trna10: ACE-tRNA Trp, TAG suppressor, SEQ ID NO: 33 (nucleic acid)
# chain: B1 chain with C20T, C50T, G60A, A62G
# modifications: expressed or natural sequence
# B3: ArgTGAchr1.trna10/withintron: ACE-tRNA Arg, TGA suppressor, SEQ ID NO: 11 (nucleic acid)
# chain: CGTCGGCTCCGTGGCGCAATGGATAGCGCATTGGACTTCAAGAGGCTGAAGGCATTCAAAGGTTCCGGGTTCGAGTCCCGGCGGAGTCG
# modifications: expressed or natural sequence
# B4: GlnTAGchr6.trna63: ACE-tRNA Gln, TAG suppressor, SEQ ID NO: 18 (nucleic acid)
# chain: CGTCGGTCCCATGGTGTAATGGTTAGCACTCTGGACTCTAAATCCAGCAATCCGAGTTCGAATCTCGGTGGGACCT
# modifications: expressed or natural sequence
# B5: GlnTAGchr6.trna132: ACE-tRNA Gln, TAG suppressor, SEQ ID NO: 20 (nucleic acid)
# chain: B4 chain with T7C, T24C, A49G, G60A, T76C
# modifications: expressed or natural sequence
# B6: GlnTAGchr17.trna14: ACE-tRNA Gln, TAG suppressor, SEQ ID NO: 19 (nucleic acid)
# chain: B4 chain with A49G, G60A
# modifications: expressed or natural sequence
# B7: GlnTAGchr1.trna17: ACE-tRNA Gln, TAG suppressor, SEQ ID NO: 16 (nucleic acid)
# chain: B4 chain with C8T, T24G, A49G, A62G, G72A
# modifications: expressed or natural sequence
# B8: GlnTAGchr6.trna175: ACE-tRNA Gln, TAG suppressor, SEQ ID NO: 17 (nucleic acid)
# chain: B4 chain with T7C, A49G, G60A
# modifications: expressed or natural sequence
# B9: ArgTGAchr1.trna10/nointron: ACE-tRNA Arg, TGA suppressor, SEQ ID NO: 6 (nucleic acid)
# chain: CGTCGGCTCCGTGGCGCAATGGATAGCGCATTGGACTTCAAATTCAAAGGTTCCGGGTTCGAGTCCCGGCGGAGTCG
# modifications: expressed or natural sequence
# B10: ArgTGAchr17.trna3/nointron: ACE-tRNA Arg, TGA suppressor, SEQ ID NO: 8 (nucleic acid)
# chain: B9 chain with C10T, C53G, C54T, G63A, G68A, G69C, G71A
# modifications: expressed or natural sequence
# B11: ArgTGAchr17.trna3/withinron: ACE-tRNA Arg, TGA suppressor, SEQ ID NO: 12 (nucleic acid)
# chain: CGTCGGCTCTGTGGCGCAATGGATAGCGCATTGGACTTCAAGTGACGAATAGAGCAATTCAAAGGTTGTGGGTTCGAATCCCACCAGAGTCG
# modifications: expressed or natural sequence
# B12: GlyTGAchr17.trna9: ACE-tRNA Gly, TGA suppressor, SEQ ID NO: 55 (nucleic acid)
# chain: GCGTTGGTGGTATAGTGGTAAGCATAGCTGCCTTCAAAGCAGTTGACCCGGGTTCGATTCCCGGCCAACGCA
# modifications: expressed or natural sequence
# B13: GlyTGAchr1.trna107: ACE-tRNA Gly, TGA suppressor, SEQ ID NO: 54 (nucleic acid)
# chain: B12 chain with A20G
# modifications: expressed or natural sequence
# B14: ArgTGAchr9.trna6/withintron: ACE-tRNA Arg, TGA suppressor, SEQ ID NO: 9 (nucleic acid)
# chain: CGTCGGCTCTGTGGCGCAATGGATAGCGCATTGGACTTCAAGCTGAGCCTAGTGTGGTCATTCAAAGGTTGTGGGTTCGAGTCCCACCAGAGTCG
# modifications: expressed or natural sequence
# B15: ArgTGAchr16.trna3: ACE-tRNA Arg, TGA suppressor, SEQ ID NO: 10 (nucleic acid)
# chain: CGTCGCCCCGGTGGCCTAATGGATAAGGCATTGGCCTTCAAAGCCAGGGATTGTGGGTTCGAGTCCCACCCGGGGTA
# modifications: expressed or natural sequence
# B16: TS-38: t-stem variant of Trpchr17.trna39, SEQ ID NO: 3 (nucleic acid)
# chain: GGCCTCGTGGCGCAACGGTAGCGCGTCTGACTTCAGATCAGAAGGTTCCGGGTTCAAATCCCGGCGGGGTCA
# modifications: expressed or natural sequence
# B17: TrpTGAchr17.trna10: ACE-tRNA Trp, TGA suppressor, SEQ ID NO: 49 (nucleic acid)
# chain: B16 chain with G2A, C16T, C48G, G51T, A58G, C61A, G64T
# modifications: expressed or natural sequence
# Experiments:
# [1] = system: NLuc-UGA PTC; assay: NanoLuc nonsense reporter screen (all-in-one HTC plasmid), TGA/UGA PTC, HEK293 cells; assay type: cell-based, human
# Source text: Several different nonsense mutations cause CF, thus underlying roughly 10% of all CF disease. FIG. 7. These cases are concentrated into […] specific genetic lesions: E60X, R75X, G542X, R553X, Q890X, Y1092X, R1158X, R1162X and W1282X. A screen was developed to screen existing human tRNA sequences for modification and tolerance to anti-codon editing. To this end, roughly 144 ACE-tRNAs were candidates to test for those that could be used to promote the repair of the disease causative nonsense codon and the expression of the full-length protein. Specifically, using the scheme described in FIG. 11, tRNA libraries were generated to identify novel tRNA sequences that encode for ACE tRNA with the ability to repair the top CF causative nonsense mutations. Specifically, 10 ng of annealed oligos encoding the ACE-tRNAs were combined with 50 ng of NanoLuc reporter plasmid, 1 μl 10×CutSmart Buffer (NEB), 1 μl T4 ligase (NEB), 10 mM ATP and 1 μl BbsI (NEB) and cycled in a thermocycler as described in FIG. 11. 1 μl of the reaction was transformed into competent E. coli and the transformants were plated on ampicillin agar plates. One transformant was picked per plate was picked, grown in 1 ml of LB under ampicillin selection, miniprepped and sequence verified.
# Screening studies were first performed to identify the best ACE-tRNA Candidates from tryptophan and glycine. 125 ng of sequence verified miniprep cDNA of NanoLuc reporter plasmid with ACE-tRNA was transfected into HEK cells using calcium phosphate. HEK cells were plated in 96 well plates at 4×10^4 the day prior. 24 hours after transfection the media was replaced with 20 μl of PBS and 15 μl of NanoGlo reagent (Promega) was added. Plates were read on a SpectraMax i3 (Molecular Devices). Data are of replicates of 3 or greater. FIG. 8.
# FIG. 10. An additional modification of the tRNA was made to further enable their function for the purpose of suppression of nonsense codons and the promotion of protein expression. […] To this end, single and double mutations were directly engineered into the t-stem loop of tRNA Trpchr17.trna39—an ACE-tRNA identified with activity for the rescue of tryptophan TGA nonsense codons. Thirty-eight tRNA t-stem variants were thus generated and screened in HEK cells transiently transfected with the nonsense rescue reporter construct shown in FIG. 4. […] This is a generalizable modification, that is, new tRNA sequences identified, by example 1 and 2, can be made better (for their ability to rescue nonsense codons) through further rationale modifications. Such approaches aid in the therapeutic utility of ACE-tRNA directed to tissue types with low abundance target RNA or where tRNA delivery may be limiting.
# In order to enable the identification of the nucleotide composition and functional ability to suppress nonsense codons by new types of tRNA, an All-In-One Plasmid With A One Pot Cloning Reaction was invented for High Throughput Cloning FIG. 11. This approach enables the facile investigation of ACE-tRNA activity via luciferase activity in a standard 96 well format. Briefly, synthetic nucleotide sequences encoding for tRNA are ligated into the NanoLuc Reporter plasmid, with an example of the TGA nonsense reporter plasmid variant shown in FIG. 11. […] and TAG (amber) stop codon rescue vectors have been successfully designed and implemented in FIGS. 16-19. The benefits are the approach is that DNA oligos encoding for tRNA libraries can be ligated in the NanoLuc reporter plasmid with the presence of the restriction enzyme and ligase with the reaction pushed to nearly 100% incorporation of tRNA insert (FIG. 11)-thus the ‘one-pot’ designation. The reaction is transformed into E. coli, with the resultant cDNA purified by standard methods. […]
# [2] = system: NLuc-UAG PTC; assay: NanoLuc nonsense reporter screen (all-in-one HTC plasmid), TAG/UAG PTC, HEK293 cells; assay type: cell-based, human
# Source text: In order to enable the identification of the nucleotide composition and functional ability to suppress nonsense codons by new types of tRNA, an All-In-One Plasmid With A One Pot Cloning Reaction was invented for High Throughput Cloning FIG. 11. This approach enables the facile investigation of ACE-tRNA activity via luciferase activity in a standard 96 well format. Briefly, synthetic nucleotide sequences encoding for tRNA are ligated into the NanoLuc Reporter plasmid, with an example of the TGA nonsense reporter plasmid variant shown in FIG. 11. […] and TAG (amber) stop codon rescue vectors have been successfully designed and implemented in FIGS. 16-19. The benefits are the approach is that DNA oligos encoding for tRNA libraries can be ligated in the NanoLuc reporter plasmid with the presence of the restriction enzyme and ligase with the reaction pushed to nearly 100% incorporation of tRNA insert (FIG. 11)-thus the ‘one-pot’ designation. The reaction is transformed into E. coli, with the resultant cDNA purified by standard methods. Another benefit of the invented method is that the tRNA and reporter gen are within the single expression cassette, therefore lowering biological variability and improving data quality obtaining in resulting screens of tRNA suppression activity. The purified cDNA plasmids are then screened in high-throughput 96 well format for their ability to repair nonsense codons by inferred luciferase activity. The approach is suitable for the high-throughput screening of hundreds to thousands of tRNA for novel therapeutic activity.
# The rationale of this study is rooted in the observation that there are multiple tRNA genes with unique sequences (isodecoders) for a given cognate amino acid (isoacceptors), leading to >400 tRNAs annotated in the human genome (http:lowelab.ucsc.edu/GtRNAdb/)^28, 29. First, tRNA genes were examined to identify individual ACE-tRNAs that retain suppression efficacy of PTCs in mammalian cells. In order to maximize sequence coverage, an all-in-one cDNA plasmid was generated that supports both high-throughput cloning (HTC) of ACE-tRNAs and quantitative measurement of PTC suppression using luminescence following delivery to mammalian cells, FIG. 21B. ACE-tRNA sequences were cloned as DNA oligos into the HTC plasmid using Golden Gate cloning^30 paired with ccdB negative selection^31. This strategy produced ˜100% cloning efficiency. ACE-tRNA suppression efficiency was read out from a split NanoLuc luciferase (NLuc) NanoBiT platform whereby the PTC of interest (UGA, UAA, or UAG) was introduced in-frame at the junction between the large bit and small bit domains, FIG. 21B^32, using a 96-well format and normalized to background obtained in NLuc-PTC expressing cells. Twenty-one glycine ACE-tRNAs were first evaluated for suppression of the UGA PTC, FIG. 22, top left, column 1 (violet). […] Given the high sequence conservation among the Gly-tRNAs screened for anti-codon tolerance (FIG. 27), it would be difficult to predict de novo which tRNA would be most amenable to anticodon-editing.
# The parent plasmid used was pcDNA3.1(+). The cDNA encoding pNLuc was Gibson Assembled (New England Biolabs, USA) into restriction sites HindIII and XhoI. A glycine (codon gga), tryptophan ([…]), amber (tag), opal (tga) and ochre (taa), were added to amino acid position 160 during cDNA per. The pcDNA3.1(+) polyA sequence was replaced for one with no BbsI restriction sites using per based Gibson Assembly. The high throughput ACE-tRNA Golden Gate cloning site was generated by first inserting the 5′ leader sequence of the human tRNA^Tyr gene (bold) with a T7 promoter sequence upstream (italics)
# tRNA gene sequences were obtained from the tRNA database tRNAscan-SE (http://gtrnadb.ucsc.edu/index.html; PMID: 26673694). […]
molecule,measurement,setting,value
"ArgTGAchr9.trna6/nointron: ACE-tRNA Arg, TGA suppressor, SEQ ID NO: 4",Ranking,"[1]; Table 1, Arg TGA",#1
"ArgTGAchr7.trna5: ACE-tRNA Arg, TGA suppressor, SEQ ID NO: 7",Ranking,"[1]; Table 1, Arg TGA",#4
"TrpTGAchr6.trna171: ACE-tRNA Trp, TGA suppressor, SEQ ID NO: 50",Ranking,"[1]; Table 7, Trp TGA",#3
"TrpTAGchr6.trna171: ACE-tRNA Trp, TAG suppressor, SEQ ID NO: 34",Ranking,"[2]; Table 4, Trp TAG",#2
"ArgTGAchr17.trna19: ACE-tRNA Arg, TGA suppressor, SEQ ID NO: 5",Ranking,"[1]; Table 1, Arg TGA",#2
"TrpTAGchr17.trna39: ACE-tRNA Trp, TAG suppressor, SEQ ID NO: 35",Ranking,"[2]; Table 4, Trp TAG",#3
B1,Ranking,"[2]; Table 4, Trp TAG",#4
B2,Ranking,"[2]; Table 4, Trp TAG",#1
B3,Ranking,"[1]; Table 1, Arg TGA",#6
B4,Ranking,"[2]; Table 2, Gln TAG",#3
B5,Ranking,"[2]; Table 2, Gln TAG",#5
B6,Ranking,"[2]; Table 2, Gln TAG",#4
B7,Ranking,"[2]; Table 2, Gln TAG",#1
B8,Ranking,"[2]; Table 2, Gln TAG",#2
B9,Ranking,"[1]; Table 1, Arg TGA",#3
B10,Ranking,"[1]; Table 1, Arg TGA",#4
B11,Ranking,"[1]; Table 1, Arg TGA",#7
B12,Ranking,"[1]; Table 8, Gly TGA",#3
B13,Ranking,"[1]; Table 8, Gly TGA",#2
B14,Ranking,"[1]; Table 1, Arg TGA",#5
B15,Ranking,"[1]; Table 1, Arg TGA",#5
B16,enhancement of the suppression ability of Trpchr17.trna39 by t-stem mutation,"[1]; HEK cells, luciferase 24 hours post-transfection",roughly 250%
B17,Ranking,"[1]; Table 7, Trp TGA",#2
